Measurements taken from PMC3127752.

Legend:
[1] = biological target: T1, SO2426sh (Shewanella oneidensis MR-1) (UniProt Q8EEF6); experiment: EMSA; conditions: DIG-11-dUTP incorporated (dTTP:DIG-dUTP 1:6 mix), 0.5X EMSA buffer [5 mM Tris-Cl pH 8.0, 75 mM KCl, 0.05 mM DTT, 0.05 mM EDTA, 6% glycerol], 5 mM MgCl2, 20 mM acetyl phosphate, 0.2 ug/ul poly(dI:dC)
T1 sequence: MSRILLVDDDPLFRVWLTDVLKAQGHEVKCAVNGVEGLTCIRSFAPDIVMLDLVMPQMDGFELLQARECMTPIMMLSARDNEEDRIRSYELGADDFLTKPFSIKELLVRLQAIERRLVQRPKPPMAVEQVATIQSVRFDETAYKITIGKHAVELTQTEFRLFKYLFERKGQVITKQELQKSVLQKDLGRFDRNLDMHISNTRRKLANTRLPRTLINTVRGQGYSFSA

[2] = system: T2, SO2426 (Shewanella oneidensis MR-1), ORF:71750797; experiment: EMSA; conditions: DIG-11-dUTP incorporated (dTTP:DIG-dUTP 1:6 mix), 0.5X EMSA buffer [5 mM Tris-Cl pH 8.0, 75 mM KCl, 0.05 mM DTT, 0.05 mM EDTA, 6% glycerol], 5 mM MgCl2, 20 mM acetyl phosphate, 0.2 ug/ul poly(dI:dC)
T2 sequence: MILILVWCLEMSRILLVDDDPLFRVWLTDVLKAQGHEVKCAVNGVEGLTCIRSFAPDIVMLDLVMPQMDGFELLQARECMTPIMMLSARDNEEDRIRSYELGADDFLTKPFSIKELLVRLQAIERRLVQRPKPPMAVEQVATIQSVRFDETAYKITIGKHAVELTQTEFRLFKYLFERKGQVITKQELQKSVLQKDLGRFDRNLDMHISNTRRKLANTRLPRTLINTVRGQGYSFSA

TTCGTCGTTGTAGTGAACCTGTAACAGCAAATCAGACGGAAAAATTTCTATTTAGCAACACAATGGAATGACTTACACGGCA (double strand) [so3030 upstream 83-bp probe]
binding [1]: binds
binding [2]: binds
